B1: Solute carrier family 22 member 1 (Rattus norvegicus) (protein)
chain: MPTVDDVLEQVGEFGWFQKQAFLLLCLISASLAPIYVGIVFLGFTPGHYCQNPGVAELSQRCGWSQAEELNYTVPGLGPSDEASFLSQCMRYEVDWNQSTLDCVDPLSSLVANRSQLPLGPCEHGWVYDTPGSSIVTEFNLVCGDAWKVDLFQSCVNLGFFLGSLVVGYIADRFGRKLCLLVTTLVTSVSGVLTAVAPDYTSMLLFRLLQGMVSKGSWVSGYTLITEFVGSGYRRTTAILYQMAFTVGLVGLAGVAYAIPDWRWLQLAVSLPTFLFLLYYWFVPESPRWLLSQKRTTRAVRIMEQIAQKNGKVPPADLKMLCLEEDASEKRSPSFADLFRTPNLRKHTVILMYLWFSCAVLYQGLIMHVGATGANLYLDFFYSSLVEFPAAFIILVTIDRIGRIYPIAASNLVTGAACLLMIFIPHELHWLNVTLACLGRMGATIVLQMVCLVNAELYPTFIRNLGMMVCSALCDLGGIFTPFMVFRLMEVWQALPLILFGVLGLTAGAMTLLLPETKGVALPETIEEAENLGRRKSKAKENTIYLQVQTGKSSST
B2: Solute carrier family 22 member 2 (Rattus norvegicus) (protein)
chain: MSTVDDILEHIGEFHLFQKQTFFLLALLSGAFTPIYVGIVFLGFTPDHHCWSPGAAKLSQRCGWSQAEELNYTVPGLGPSDEASFLSQCMRYEVDWNQSTLDCVDPLSSLAADRNQLPLGPCEHGWVYNTPGSSIVTEFNLVCAHSWMLDLFQSVVNVGFFIGAMMIGYLADRFGRKFCLLVTILINAISGALMAISPNYAWMLVFRFLQGLVSKAGWLIGYILITEFVGLGYRRMVGICYQIAFTVGLLILAGVAYVIPNWRWLQFAVTLPNFCFLLYFWCIPESPRWLISQNKIVKAMKIIKHIAKKNGKSVPVSLQNLTPDEDAGKKLNPSFLDLVRTPQIRKHTLILMYNWFTSSVLYQGLIMHMGLAGDNIYLDFFYSALVEFPAAFIIILTIDRVGRRYPWAVSNMVAGAACLASVFIPDDLQWLKITIACLGRMGITMAYEMVCLVNAELYPTYIRNLGVLVCSSMCDIGGIITPFLVYRLTDIWMEFPLVVFAVVGLVAGALVLLLPETKGKALPETIEDAENMQRPRKKKEKRIYLQVKQADRPLS

Substrate: Nc1ncnc2c1ccn2[C@H]1C[C@H](O)[C@@H](CO)O1
Assay: TP_TRANSPORTER: uptake (pH 5.4) in Xenopus laevis oocytes
Format: functional, cell-based, Oocyte

| Protein | Km [µM] |
| --- | --- |
| B1 | 23 |
| B2 | 212 |

Reference: ChEMBL document CHEMBL2074236, “Renal organic cation and nucleoside transport” (Biochem Pharmacol, 2002)
